Source: patent publication US20240299575A1 (DENALI THERAPEUTICS, published 2024)
Substitutions are numbered along the chain they refer to. In names and notes the source's numbering stands. Read-outs that look alike come from different tables or passages of the source.

Assays:
[1] = biological target: T1, Human transferrin receptor protein 1 (TFR1) (human, UniProt P02786 89-760, limits assumed); test: column 'Affinity' of the construct table; method not stated
T1 construct: also called huTfR

[2] = biological target: T1, Human transferrin receptor protein 1 …; test: as above; remark: listed apart in the source

T1 sequence (P02786 89-760 limits assumed): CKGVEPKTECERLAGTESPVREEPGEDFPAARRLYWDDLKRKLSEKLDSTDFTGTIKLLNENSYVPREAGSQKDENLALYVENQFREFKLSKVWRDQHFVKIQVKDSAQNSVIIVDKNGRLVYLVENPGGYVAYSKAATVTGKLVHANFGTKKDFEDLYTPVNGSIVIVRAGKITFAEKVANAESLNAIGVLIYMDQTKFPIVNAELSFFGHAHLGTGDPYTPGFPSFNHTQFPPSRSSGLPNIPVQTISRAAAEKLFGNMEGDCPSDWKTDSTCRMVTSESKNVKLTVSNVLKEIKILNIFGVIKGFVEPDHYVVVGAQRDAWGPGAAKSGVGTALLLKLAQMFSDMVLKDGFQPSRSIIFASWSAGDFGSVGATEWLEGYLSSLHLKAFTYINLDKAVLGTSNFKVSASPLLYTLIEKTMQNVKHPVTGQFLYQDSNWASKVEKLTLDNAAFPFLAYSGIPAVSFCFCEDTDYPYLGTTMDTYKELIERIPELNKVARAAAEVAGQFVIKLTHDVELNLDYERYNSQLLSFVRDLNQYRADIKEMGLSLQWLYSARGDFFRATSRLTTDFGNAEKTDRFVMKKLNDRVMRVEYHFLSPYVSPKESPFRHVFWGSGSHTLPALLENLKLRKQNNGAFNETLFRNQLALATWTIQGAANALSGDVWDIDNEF

B1: TV variant S239C (RSV Fab-Fc dimer fusion, CH3C.35.23.2 on the knob chain, LALA, S239C on the hole chain) (antibody, human IgG1, kappa, L234A L235A)
light: DIQMTQSPSTLSASVGDRVTITCKCQLSVGYMHWYQQKPGKAPKLLIYDTSKLASGVPSRFSGSGSGTEFTLTISSLQPDDFATYYCFQGSGYPFTFGGGTKLEIKRTVAAPSVFIFPPSDEQLKSGTASVVCLLNNFYPREAKVQWKVDNALQSGNSQESVTEQDSKDSTYSLSSTLTLSKADYEKHKVYACEVTHQGLSSPVTKSFNRGEC
heavy 1: QVTLRESGPALVKPTQTLTLTCTFSGFSLSTSGMSVGWIRQPPGKALEWLADIWWDDKKDYNPSLKSRLTISKDTSKNQVVLKVTNMEPADTATYYCARSMITNWYFDVWGAGTTVTVSSASTKGPSVFPLAPSSKSTSGGTAALGCLVKDYFPEPVTVSWNSGALTSGVHTFPAVLQSSGLYSLSSVVTVPSSSLGTQTYICNVNHKPSNTKVDKKVEPKSCDKTHTCPPCPAPEAAGGPSVFLFPPKPKDTLMISRTPEVTCVVVDVSHEDPEVKFNWYVDGVEVHNAKTKPREEQYNSTYRVVSVLTVLHQDWLNGKEYKCKVSNKALPAPIEKTISKAKGQPREPQVYTLPPSRDELTKNQVSLWCLVKGFYPSDIAVEWESYGTEWANYKTTPPVLDSDGSFFLYSKLTVTKEEWQQGFVFSCSVMHEALHNHYTQKSLSLSPGK
heavy 2: QVTLRESGPALVKPTQTLTLTCTFSGFSLSTSGMSVGWIRQPPGKALEWLADIWWDDKKDYNPSLKSRLTISKDTSKNQVVLKVTNMEPADTATYYCARSMITNWYFDVWGAGTTVTVSSASTKGPSVFPLAPSSKSTSGGTAALGCLVKDYFPEPVTVSWNSGALTSGVHTFPAVLQSSGLYSLSSVVTVPSSSLGTQTYICNVNHKPSNTKVDKKVEPKSCDKTHTCPPCPAPEAAGGPCVFLFPPKPKDTLMISRTPEVTCVVVDVSHEDPEVKFNWYVDGVEVHNAKTKPREEQYNSTYRVVSVLTVLHQDWLNGKEYKCKVSNKALPAPIEKTISKAKGQPREPQVYTLPPSRDELTKNQVSLSCAVKGFYPSDIAVEWESNGQPENNYKTTPPVLDSDGSFFLVSKLTVDKSRWQQGNVFSCSVMHEALHNHYTQKSLSLSPGK
notes: also called S239C (100 nM); S239 variant
- Kd [1]: 0.1 µM

B2: TV variant 500 nM low affinity (RSV Fab-Fc dimer fusion, CH3C.35.23.4 on the knob chain, S239C on the hole chain) (antibody, human IgG1, kappa, L234A L235A)
light: B1 light
heavy 1: B1 heavy 1 with A392S, T416S
heavy 2: B1 heavy 2
notes: also called 500 nM variant
- Kd [1]: 0.5 µM

B3: TV variant A330C (RSV Fab-Fc dimer fusion, CH3C.35.23.2 on the knob chain, A330C on the hole chain) (antibody, human IgG1, kappa, L234A L235A)
light: B1 light
heavy 1: B1 heavy 1
heavy 2: B1 heavy 2 with C242S, A333C
notes: also called Conjugation site A330C
- Kd [1]: 0.1 µM

B4: TV variant OTR2 (RSV Fab-Fc dimer fusion, CH3C.35.23.2 on the knob chain, S239C on both chains) (antibody, human IgG1, kappa, L234A L235A)
light: B1 light
heavy 1: B1 heavy 1 with S242C
heavy 2: B1 heavy 2
notes: also called OTR2 (1.23)
- Kd [1]: 0.1 µM

B5: TV variant OTR4 (RSV Fab-Fc dimer fusion, CH3C.35.23.2 on the knob chain, S239C and A330C on both chains) (antibody, human IgG1, kappa, L234A L235A)
light: B1 light
heavy 1: B1 heavy 1 with S242C, A333C
heavy 2: B1 heavy 2 with A333C
notes: also called OTR4 (2.5)
- Kd [1]: 0.1 µM

B6: TV variant S442C (RSV Fab-Fc dimer fusion, CH3C.35.23.2 on the knob chain, S442C on the hole chain) (antibody, human IgG1, kappa, L234A L235A)
light: B1 light
heavy 1: B1 heavy 1
heavy 2: B1 heavy 2 with C242S, S445C
notes: also called Conjugation site S442C
- Kd [1]: 0.1 µM

B7: TV variant N297G knob (DNP02 Fab-Fc dimer fusion, CH3C.35.23.2 on the knob chain, LALAPG, N297G on the knob chain) (antibody, human IgG1, kappa, L234A L235A, N297G)
light: EIVMTQSPATLSLSPGERATLSCSASSSVSYMYWYQQKPGQAPRLLIYDTSNLASGIPARFSGSGSGTDFTLTISSLQPEDFAVYYCQQWSSYPPITFGQGTKVEIKRTVAAPSVFIFPPSDEQLKSGTASVVCLLNNFYPREAKVQWKVDNALQSGNSQESVTEQDSKDSTYSLSSTLTLSKADYEKHKVYACEVTHQGLSSPVTKSFNRGEC
heavy 1: QVQLQESGPGLVKPSETLSLTCAVSGYSITSDYAWNWIRQPPGKGLEWIGYMSYSGSTRYNPSLRSRVTISVDTSKNQFSLKLSSVTAADTAVYYCARGWPLAYWGQGTLVTVSSASTKGPSVFPLAPSSKSTSGGTAALGCLVKDYFPEPVTVSWNSGALTSGVHTFPAVLQSSGLYSLSSVVTVPSSSLGTQTYICNVNHKPSNTKVDKKVEPKSCDKTHTCPPCPAPEAAGGPSVFLFPPKPKDTLMISRTPEVTCVVVDVSHEDPEVKFNWYVDGVEVHNAKTKPREEQYGSTYRVVSVLTVLHQDWLNGKEYKCKVSNKALGAPIEKTISKAKGQPREPQVYTLPPSRDELTKNQVSLWCLVKGFYPSDIAVEWESYGTEWANYKTTPPVLDSDGSFFLYSKLTVTKEEWQQGFVFSCSVMHEALHNHYTQKSLSLSPGK
heavy 2: QVQLQESGPGLVKPSETLSLTCAVSGYSITSDYAWNWIRQPPGKGLEWIGYMSYSGSTRYNPSLRSRVTISVDTSKNQFSLKLSSVTAADTAVYYCARGWPLAYWGQGTLVTVSSASTKGPSVFPLAPSSKSTSGGTAALGCLVKDYFPEPVTVSWNSGALTSGVHTFPAVLQSSGLYSLSSVVTVPSSSLGTQTYICNVNHKPSNTKVDKKVEPKSCDKTHTCPPCPAPEAAGGPSVFLFPPKPKDTLMISRTPEVTCVVVDVSHEDPEVKFNWYVDGVEVHNAKTKPREEQYNSTYRVVSVLTVLHQDWLNGKEYKCKVSNKALGAPIEKTISKAKGQPREPQVYTLPPSRDELTKNQVSLSCAVKGFYPSDIAVEWESNGQPENNYKTTPPVLDSDGSFFLVSKLTVDKSRWQQGNVFSCSVMHEALHNHYTQKSLSLSPGK
notes: Knob-in-hole heterodimer with non-targeting DNP02 Fabs; also called BTGase Knob
- Kd [2]: 0.1 µM

B8: TV variant A114C (DNP02 Fab-Fc dimer fusion, CH3C.35.23.2 on the knob chain, LALAPG, A114C (Kabat) on the hole chain) (antibody, human IgG1, kappa, L234A L235A)
light: B7 light
heavy 1: B7 heavy 1 with G295N
heavy 2: B7 heavy 2 with A116C
notes: Knob-in-hole heterodimer with non-targeting DNP02 Fabs
- Kd [2]: 0.1 µM

B9: TV variant K149C (DNP02 Fab-Fc dimer fusion, CH3C.35.23.2 on the knob chain, LALAPG, K149C on the DNP02 light chain) (antibody, human IgG1, kappa, L234A L235A)
light: B7 light with K149C
heavy 1: B7 heavy 1 with G295N
heavy 2: B7 heavy 2
notes: as for B8
- Kd [2]: 0.1 µM

B10: TV variant N297G OTR2 (DNP02 Fab-Fc dimer fusion, CH3C.35.23.2 on the knob chain, LALAPG, N297G on both chains) (antibody, human IgG1, kappa, L234A L235A, N297G)
light: B7 light
heavy 1: B7 heavy 1
heavy 2: B7 heavy 2 with N295G
notes: Knob-in-hole heterodimer with non-targeting DNP02 Fabs; also called BTGase DAR2
- Kd [2]: 0.1 µM

B11: TV variant N297G hole (DNP02 Fab-Fc dimer fusion, CH3C.35.23.2 on the knob chain, LALAPG, N297G on the hole chain) (antibody, human IgG1, kappa, L234A L235A, N297G)
light: B7 light
heavy 1: B7 heavy 1 with G295N
heavy 2: B7 heavy 2 with N295G
notes: Knob-in-hole heterodimer with non-targeting DNP02 Fabs; also called BTGase Hole
- Kd [2]: 0.1 µM

B12: TV variant T289C (DNP02 Fab-Fc dimer fusion, CH3C.35.23.2 on the knob chain, LALAPG, T289C on the hole chain) (antibody, human IgG1, kappa, L234A L235A)
light: B7 light
heavy 1: B7 heavy 1 with G295N
heavy 2: B7 heavy 2 with T287C
notes: as for B8
- Kd [2]: 0.1 µM

B13: TV variant SansFab (Fc polypeptide dimer without Fab, CH3C.35.23.2 on the knob chain, S239C on the hole chain) (designed binder)
chain 1: DKTHTCPPCPAPEAAGGPSVFLFPPKPKDTLMISRTPEVTCVVVDVSHEDPEVKFNWYVDGVEVHNAKTKPREEQYNSTYRVVSVLTVLHQDWLNGKEYKCKVSNKALPAPIEKTISKAKGQPREPQVYTLPPSRDELTKNQVSLWCLVKGFYPSDIAVEWESYGTEWANYKTTPPVLDSDGSFFLYSKLTVTKEEWQQGFVFSCSVMHEALHNHYTQKSLSLSPGK
chain 2: DKTHTCPPCPAPEAAGGPCVFLFPPKPKDTLMISRTPEVTCVVVDVSHEDPEVKFNWYVDGVEVHNAKTKPREEQYNSTYRVVSVLTVLHQDWLNGKEYKCKVSNKALPAPIEKTISKAKGQPREPQVYTLPPSRDELTKNQVSLSCAVKGFYPSDIAVEWESNGQPENNYKTTPPVLDSDGSFFLVSKLTVDKSRWQQGNVFSCSVMHEALHNHYTQKSLSLSPGK
notes: Fc knob-in-hole heterodimer with a portion of the IgG1 hinge and LALA mutations; also called No Fab
- Kd [1]: 0.1 µM
